Measurements: article PMC5748844 (The Journal of Experimental Medicine, 2018)
Like-named read-outs stand apart in the source and are kept apart here.

What was measured:
[1] = target: soluble RAGE (receptor for advanced glycation end products) (UniProt Q15109); assay: SPR
[2] = target: soluble RAGE (receptor for advanced glycation end products) (UniProt Q15109); assay: SPR; remark: listed apart in the source

nonoxidizable HMGB1 mutant 3S (from UniProt P63159 1-215) (natural protein)
Kd [1]: 3.5 µM

B1: fully reduced HMGB1 (High Mobility Group Box 1) (natural protein)
chain: MGKGDPKKPRGKMSSYAFFVQTCREEHKKKHPDASVNFSEFSKKCSERWKTMSAKEKGKFEDMAKADKARYEREMKTYIPPKGETKKKFKDPNAPKRPPSAFFLFCSEYRPKIKGEHPGLSIGDVAKKLGEMWNNTAADDKQPYEKKAAKLKEKYEKDIAAYRAKGKPDAAKKGVVKAEKSKKKKEEEDDEEDEEDEEEEEEEEDEDEEEDDDDE
modifications: all cysteines reduced
Kd [2]: 3.5 µM
